Read-outs that look alike come from different tables or passages of the source. One block for each molecule: values may come before it.
Tests used:
[1] = target: PTH1R of the PathHunter CHO-K1 PTH1R β-arrestin cell line (UniProt Q03431)
[2] = target: PTH1R of the PathHunter CHO-K1 PTH1R β-arrestin cell line (UniProt Q03431); remark: listed apart in the source
[3] = target: T1, parathyroid hormone 1 receptor, C-tagged Citrine PTH1R (human, UniProt Q03431 27-593); assay: FRET or BRET; sensitized-emission FRET imaging at the cell surface (50-pixel membrane ROIs) of fixed COS-7 cells co-transfected with C-tagged Citrine PTH1R (acceptor) and C-tagged Cerulean RAMP (donor); NFRET as % of a Cerulean-Citrine fusion; FRET-based stoichiometric analysis (Hoppe et al., 2002); conditions: partners not purified
T1 construct: parathyroid hormone 1 receptor (PTH1R), cDNA without its stop codon between HindIII and Not1 of pcDNA3.1 Citrine; also called parathyroid hormone receptor-1; PTHR1; source: COS-7, transfected (electroporation, pcDNA3.1), in fixed cells; not shown: Citrine, C-terminal, kept
T1 sequence (looked up): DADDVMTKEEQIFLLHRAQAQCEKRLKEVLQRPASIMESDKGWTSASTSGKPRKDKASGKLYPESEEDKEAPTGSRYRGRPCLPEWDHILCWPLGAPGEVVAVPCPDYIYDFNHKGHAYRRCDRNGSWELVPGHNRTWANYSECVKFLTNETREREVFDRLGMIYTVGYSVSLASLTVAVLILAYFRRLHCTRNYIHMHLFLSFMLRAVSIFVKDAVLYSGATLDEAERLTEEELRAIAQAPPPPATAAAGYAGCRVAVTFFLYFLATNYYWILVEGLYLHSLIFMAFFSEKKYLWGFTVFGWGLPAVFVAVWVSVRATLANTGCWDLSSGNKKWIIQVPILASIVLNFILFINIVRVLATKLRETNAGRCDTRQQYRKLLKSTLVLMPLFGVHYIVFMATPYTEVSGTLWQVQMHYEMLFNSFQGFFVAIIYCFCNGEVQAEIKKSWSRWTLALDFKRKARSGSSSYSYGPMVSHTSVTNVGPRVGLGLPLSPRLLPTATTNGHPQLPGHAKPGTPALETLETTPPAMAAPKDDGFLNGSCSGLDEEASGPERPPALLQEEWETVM

[4] = target: T1, parathyroid hormone 1 receptor, …; assay: as above; conditions: partners not purified; remark: listed apart in the source
[5] = target: PTH1R of the PathHunter CHO-K1 PTH1R β-arrestin cell line (UniProt Q03431); remark: listed apart in the source

Molecule: PTH (1-34) (peptide)
- efficacy, cAMP accumulation (Gαs), CHO-K1 PTH1R + RAMP2 cells [1]: 79.4%
- efficacy, cAMP accumulation (Gαs), CHO-K1 PTH1R + RAMP3 cells [1]: 65.1%
- efficacy, cAMP accumulation (Gαs), CHO-K1 PTH1R parental cells (mock) [1]: 68.1%
- efficacy, cAMP accumulation after pertussis toxin (cAMP + PTX), CHO-K1 PTH1R + RAMP2 cells [1]: 71.6%
- efficacy, cAMP accumulation after pertussis toxin (cAMP + PTX), CHO-K1 PTH1R + RAMP3 cells [1]: 28.7%
- efficacy, cAMP accumulation after pertussis toxin (cAMP + PTX), CHO-K1 PTH1R parental cells (mock) [1]: 33.5%
- efficacy, calcium influx (Gαq), CHO-K1 PTH1R + RAMP2 cells [1]: 63.5%
- efficacy, calcium influx (Gαq), CHO-K1 PTH1R parental cells (mock) [1]: 19.8%
- efficacy, β-arrestin recruitment, CHO-K1 PTH1R + RAMP2 cells [1]: 103%
- efficacy, β-arrestin recruitment, CHO-K1 PTH1R parental cells (mock) [1]: 6.31%
- pEC50, cAMP accumulation (Gαs), CHO-K1 PTH1R + RAMP2 cells [1]: 9.55 pEC50
- pEC50, cAMP accumulation (Gαs), CHO-K1 PTH1R + RAMP3 cells [1]: 8.55 pEC50
- pEC50, cAMP accumulation (Gαs), CHO-K1 PTH1R parental cells (mock) [1]: 9.3 pEC50
- pEC50, cAMP accumulation after pertussis toxin (cAMP + PTX), CHO-K1 PTH1R + RAMP2 cells [1]: 10 pEC50
- pEC50, cAMP accumulation after pertussis toxin (cAMP + PTX), CHO-K1 PTH1R + RAMP3 cells [1]: 8.48 pEC50
- pEC50, cAMP accumulation after pertussis toxin (cAMP + PTX), CHO-K1 PTH1R parental cells (mock) [1]: 8.9 pEC50
- pEC50, calcium influx (Gαq), CHO-K1 PTH1R + RAMP2 cells [1]: 8.21 pEC50
- pEC50, calcium influx (Gαq), CHO-K1 PTH1R parental cells (mock) [1]: 8.9 pEC50
- pEC50, β-arrestin recruitment, CHO-K1 PTH1R + RAMP2 cells [1]: 8.19 pEC50
- pEC50, β-arrestin recruitment, CHO-K1 PTH1R parental cells (mock) [1]: 8.6 pEC50

Molecule: PTHrP (1-108) (domain or fragment)
- efficacy, cAMP accumulation, CHO-K1 PTH1R + RAMP2 cells [2]: 81.4%
- efficacy, cAMP accumulation, CHO-K1 PTH1R parental cells (mock) [2]: 72.8%
- pEC50, cAMP accumulation, CHO-K1 PTH1R + RAMP2 cells [2]: 8.61 pEC50
- pEC50, cAMP accumulation, CHO-K1 PTH1R parental cells (mock) [2]: 8.25 pEC50

B1: receptor activity-modifying protein 2, C-tagged Cerulean RAMP2 (natural protein, human, UniProt O60895 43-175, looked up)
chain: QPLPTTGTPGSEGGTVKNYETAVQFCWNHYKDQMDPIEKDWCDWAMISRPYSTLRDCLEHFAELFDLGFPNPLAERIIFETHQIHFANCSLVQPTFSDPPEDVLLAMIIAPICLIPFLITLVVWRSKDSEAQA
notes: RAMP2, cDNA without its stop codon between Kpn1 and Not1 of pcDNA3.1 Cerulean; source: COS-7, transfected (electroporation, pcDNA3.1), in fixed cells; not shown: Cerulean, C-terminal, kept
- stoichiometry N [3]: ~1 RAMP2 per PTH1R
- R (molar ratio of acceptor to donor) [4]: 1.27 ± 0.31 PTH1R (acceptor) per RAMP2 (donor)
- cell membrane NFRET relative to cer-cit fusion [4]: 48.8 ± 4.1%

B2: receptor activity-modifying protein 3, C-tagged Cerulean RAMP3 (natural protein, human, UniProt O60896 24-148, looked up)
chain: RAGGCNETGMLERLPLCGKAFADMMGKVDVWKWCNLSEFIVYYESFTNCTEMEANVVGCYWPNPLAQGFITGIHRQFFSNCTVDRVHLEDPPDEVLIPLIVIPVVLTVAMAGLVVWRSKRTDTLL
notes: RAMP3, cDNA without its stop codon between Kpn1 and Not1 of pcDNA3.1 Cerulean; source: COS-7, transfected (electroporation, pcDNA3.1), in fixed cells; not shown: Cerulean, C-terminal, kept
- stoichiometry N [3]: ~2 RAMP3 per PTH1R
- R (molar ratio of acceptor to donor) [4]: 0.37 ± 0.06 PTH1R (acceptor) per RAMP3 (donor)
- cell membrane NFRET relative to cer-cit fusion [4]: 32 ± 4.7%

More lines, main results first:

- efficacy, cAMP accumulation, CHO-K1 PTH1R + RAMP2 cells [2]: 85.3%
- efficacy, cAMP accumulation, CHO-K1 PTH1R + RAMP3 cells [2]: 55.7%
- efficacy, cAMP accumulation, CHO-K1 PTH1R parental cells (mock) [2]: 74.9%
- pEC50, cAMP accumulation, CHO-K1 PTH1R + RAMP2 cells [2]: 9.25 pEC50
- pEC50, cAMP accumulation, CHO-K1 PTH1R + RAMP3 cells [2]: 7.86 pEC50
- pEC50, cAMP accumulation, CHO-K1 PTH1R parental cells (mock) [2]: 9.23 pEC50
Molecule: PTHrP (1-141) (ligand)

- efficacy, cAMP accumulation (Gαs), CHO-K1 PTH1R + RAMP2 cells [5]: 95.5%
- efficacy, cAMP accumulation (Gαs), CHO-K1 PTH1R + RAMP3 cells [5]: 72.2%
- efficacy, cAMP accumulation (Gαs), CHO-K1 PTH1R parental cells (mock) [5]: 86.6%
- efficacy, calcium influx (Gαq), CHO-K1 PTH1R + RAMP2 cells [5]: 82.2%
- efficacy, β-arrestin recruitment, CHO-K1 PTH1R + RAMP2 cells [5]: 104%
- efficacy, β-arrestin recruitment, CHO-K1 PTH1R parental cells (mock) [5]: 6.08%
- pEC50, cAMP accumulation (Gαs), CHO-K1 PTH1R + RAMP2 cells [5]: 9.24 pEC50
- pEC50, cAMP accumulation (Gαs), CHO-K1 PTH1R + RAMP3 cells [5]: 7.55 pEC50
- pEC50, cAMP accumulation (Gαs), CHO-K1 PTH1R parental cells (mock) [5]: 8.2 pEC50
- pEC50, calcium influx (Gαq), CHO-K1 PTH1R + RAMP2 cells [5]: 7.38 pEC50
- pEC50, β-arrestin recruitment, CHO-K1 PTH1R + RAMP2 cells [5]: 8.1 pEC50
- pEC50, β-arrestin recruitment, CHO-K1 PTH1R parental cells (mock) [5]: 8.4 pEC50
B3: PTH (1-84) (ligand)
chain: SVSEIQLMHNLGKHLNSMERVEWLRKKLQDVHNFVALGAPLAPRDAGSQRPRKKEDNVLVESHEKSLGEADKADVNVLTKAKSQ
- efficacy, cAMP accumulation after pertussis toxin (cAMP + PTX), CHO-K1 PTH1R + RAMP2 cells [5]: 94.3%
- efficacy, cAMP accumulation after pertussis toxin (cAMP + PTX), CHO-K1 PTH1R + RAMP3 cells [5]: 71.5%
- efficacy, cAMP accumulation after pertussis toxin (cAMP + PTX), CHO-K1 PTH1R parental cells (mock) [5]: 85.5%
- pEC50, cAMP accumulation after pertussis toxin (cAMP + PTX), CHO-K1 PTH1R + RAMP2 cells [5]: 9.01 pEC50
- pEC50, cAMP accumulation after pertussis toxin (cAMP + PTX), CHO-K1 PTH1R + RAMP3 cells [5]: 7.51 pEC50
- pEC50, cAMP accumulation after pertussis toxin (cAMP + PTX), CHO-K1 PTH1R parental cells (mock) [5]: 7.8 pEC50

Reference: publication PMC11456535, “Receptor activity-modifying protein modulation of parathyroid hormone-1 receptor function and signaling” (Frontiers in Pharmacology, 2024)
